We go through one molecule from patent US20230331779A1 (SHAANXI MICOT TECHNOLOGY, published 2023).

This assay deals with T1, calcium-sensing receptor (CaSR).
T1 sequence (P41180 whole entry, species assumed, looked up): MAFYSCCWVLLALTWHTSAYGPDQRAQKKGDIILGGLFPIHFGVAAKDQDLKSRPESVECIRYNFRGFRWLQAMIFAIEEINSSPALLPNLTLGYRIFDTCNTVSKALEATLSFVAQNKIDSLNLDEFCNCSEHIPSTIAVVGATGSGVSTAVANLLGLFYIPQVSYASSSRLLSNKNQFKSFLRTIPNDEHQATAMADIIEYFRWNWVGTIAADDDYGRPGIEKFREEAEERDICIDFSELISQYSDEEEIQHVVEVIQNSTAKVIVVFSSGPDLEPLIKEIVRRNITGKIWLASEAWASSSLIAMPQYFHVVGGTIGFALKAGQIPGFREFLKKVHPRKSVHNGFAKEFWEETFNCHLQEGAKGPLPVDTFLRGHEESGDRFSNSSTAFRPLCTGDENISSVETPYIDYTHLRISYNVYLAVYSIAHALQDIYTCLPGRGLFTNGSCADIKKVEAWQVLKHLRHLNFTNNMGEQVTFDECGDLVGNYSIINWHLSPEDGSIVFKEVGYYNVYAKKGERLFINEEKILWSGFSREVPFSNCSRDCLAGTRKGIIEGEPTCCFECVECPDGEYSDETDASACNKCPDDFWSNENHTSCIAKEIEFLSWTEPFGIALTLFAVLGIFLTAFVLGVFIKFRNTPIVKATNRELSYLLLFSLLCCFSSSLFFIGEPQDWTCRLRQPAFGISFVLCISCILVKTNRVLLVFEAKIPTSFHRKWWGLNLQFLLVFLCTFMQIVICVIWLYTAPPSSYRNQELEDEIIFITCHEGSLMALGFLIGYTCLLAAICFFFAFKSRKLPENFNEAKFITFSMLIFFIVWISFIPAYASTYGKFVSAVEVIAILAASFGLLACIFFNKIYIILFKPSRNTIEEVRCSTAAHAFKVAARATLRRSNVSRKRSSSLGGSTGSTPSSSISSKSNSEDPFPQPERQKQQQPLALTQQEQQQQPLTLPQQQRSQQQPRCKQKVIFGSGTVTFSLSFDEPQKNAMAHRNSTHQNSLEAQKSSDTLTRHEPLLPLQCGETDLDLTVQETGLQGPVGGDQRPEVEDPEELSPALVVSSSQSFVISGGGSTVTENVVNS
Kind of assay: cell-based or functional assay.

B1: polypeptide of Example 1 (active polypeptide SEQ ID NO: 10) (peptide)
peptide 1: CARRRAR
peptide 2: YXFGGC
modifications: D-Tyr 1; Aib (2-aminoisobutyric acid) 2; D-Phe 3; L-Cys 6 disulfide-bonded to D-Cys 1 of the Y chain; free amino and carboxyl termini (H2N-D-Tyr-Aib-D-Phe-Gly-Gly-L-Cys-OH); N-terminal acetyl (Ac); C-terminal amide (NH2); all residues D-amino acids (Ac-D-Cys-D-Ala-D-Arg-D-Arg-D-Arg-D-Ala-D-Arg-NH2); D-Cys 1 disulfide-bonded to L-Cys 6 of the X chain
As to B1, the “EC50 of agonistic activity on HEK293-CaSR cells, HTRF IP-1 competition method, at a Ca2+ concentration of 1.2 mM” value was found to be 84.7 µM and the “EC50 of agonistic activity on HEK293-CaSR cells, HTRF IP-1 competition method, in the absence of Ca2+” value worked out at 980 µM.
